Our source for the Kd values is article PMC11764276.

The assay has as its target 2196 HC + alphamod1 LC (human). As to the kind of experiment: SPR; Biacore 8k; antibody captured on a Series S Protein A chip to ~200 RU or greater; 4X serially diluted RBD starting at 1,000 nM flowed at 50 uL/min, 120 s contact, 600 s dissociation; HBS-EP+ buffer; 1:1 Langmuir fitting, steady state analysis, or two-state reaction fitting. In general terms: SPR reads the build-up and loss of mass on a sensor chip optically.

Chain of 2196 HC + alphamod1 LC (human) (heavy, as listed by the source, chain 1 of 2): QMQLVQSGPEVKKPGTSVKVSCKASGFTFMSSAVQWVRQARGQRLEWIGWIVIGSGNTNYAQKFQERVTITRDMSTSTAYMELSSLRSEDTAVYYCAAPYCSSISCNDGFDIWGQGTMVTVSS
Chain of 2196 HC + alphamod1 LC (human) (light, as listed by the source, chain 2 of 2): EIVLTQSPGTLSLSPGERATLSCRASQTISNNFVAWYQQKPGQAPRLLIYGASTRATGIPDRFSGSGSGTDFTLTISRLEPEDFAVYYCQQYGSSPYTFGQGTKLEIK

As a reminder, the Kd is the concentration at which binding is half-saturated. Take “RBD (residues 334–527 of the SARS-CoV-2 spike glycoprotein) (from UniProt P0DTC2 334-527) (domain or fragment)”: the Kd is 99.4 nM.
